Biological target: insulin-like growth factor type 1 (IGF-1)

B1: dipeptidyl-peptidase 4 (DPP-4) (protein)
chain: NKGTDDATADSRKTYTLTDYLKNTYRLKLYSLRWISDHEYLYKQENNILVFNAEYGNSSVFLENSTFDEFGHSINDYSISPDGQFILLEYNYVKQWRHSYTASYDIYDLNKRQLITEERIPNNTQWVTWSPVGHKLAYVWNNDIYVKIEPNLPSYRITWTGKEDIIYNGITDWVYEEEVFSAYSALWWSPNGTFLAYAQFNDTEVPLIEYSFYSDESLQYPKTVRVPYPKAGAVNPTVKFFVVNTDSLSSVTNATSIQITAPASMLIGDHYLCDVTWATQERISLQWLRRIQNYSVMDICDYDESSGRWNCLVARQHIEMSTTGWVGRFRPSEPHFTLDGNSFYKIISNEEGYRHICYFQIDKKDCTFITKGTWEVIGIEALTSDYLYYISNEYKGMPGGRNLYKIQLSDYTKVTCLSCELNPERCQYYSVSFSKEAKYYQLRCSGPGLPLYTLHSSVNDKGLRVLEDNSALDKMLQNVQMPSKKLDFIILNETKFWYQMILPPHFDKSKKYPLLLDVYAGPCSQKADTVFRLNWATYLASTENIIVASFDGRGSGYQGDKIMHAINRRLGTFEVEDQIEAARQFSKMGFVDNKRIAIWGWSYGGYVTSMVLGSGSGVFKCGIAVAPVSRWEYYDSVYTERYMGLPTPEDNLDHYRNSTVMSRAENFKQVEYLLIHGTADDNVHFQQSAQISKALVDVGVDFQAMWYTDEDHGIASSTAHQHIYTHMSHFIKQCFSLP
  phosphorylation level of ERK or Akt (western blot): when the eNOS-deficient mice treated with IGF-1 was treated with DPP-4, the phosphorylation level of ERK or Akt which is the protein involved in intracellular signaling was reduced
